Data as given in patent US6867011B1, “Synthetic bioepitope compounds which can be used as standards in the biological assays of Troponin I” (Bio-Rad Pasteur, priority 1996, dated 2005).

Tests used:
[1] = Tests of stability of compound 10 solutions stored at +4° C., assayed periodically with the troponin I kit; format: physicochemical; conditions: buffer solutions stored at +4° C.
Procedure: A compound according to the invention (compound 10) was diluted in water (C=2 mg/ml). From this “stock” solution, four “working” solutions S1, S2, S3 and S4 are obtained.
To carry out the various dilutions, a 0.1 M sodium succinate buffer solution (pH=6) containing Kathon (0.2%), Re gilait (0.05%) and 2 mM EDTA was used for solutions S1 (C=0.5 ng/ml) and S2 (C=1 ng/ml).
Solutions S3 (C=0.5 ng/ml) and S4 (C=1 ng/ml) were obtained by diluting the “stock” solution with phosphate buffer (KH2PO4/K2HPO4 pH=7.5) containing Kathon (0.2%), Régilait (0.05%) and 2 mM EDTA.
Solutions S1, S2, S3 and S4 were assayed, according to the protocol described in Example 2, on D0 (day of preparation of the solutions). The values obtained served as reference for monitoring stability.
Next, solutions S1, S2, S3 and S4 were stored at +4° C. and assayed periodically. During each series of assays, three “control solutions” were used. They are the freeze-dried troponin I control sera distributed in the assay measuring range. […] During each stability test, it was checked that each of the controls tested was obtained at its target concentration. This therefore made it possible to compare the concentrations obtained for the peptides during the various tests. […]

[2] = format: physicochemical
Procedure: This stability study was validated with the aid of compound 6 stored at -20° C. and used as reference. It was checked beforehand that compound 6 is stable when stored at -20° C. for at least 18 months.

Substance | Stability of the solutions [1] | Duration stable when stored at −20° C. [2]
Ac-Asn Tyr Arg Ala Tyr Ala Thr Glu Pro His Ala Lys Lys Lys Ser Lys Gln Lys Met Gln Ala Met Met Gln Ala Leu Leu Gly Ala Arg Ala Lys Glu-NH2 (Ac-NYRAYATEPHAKKKSKQKMQAMMQALLGARAKE-NH2) [Compound 10, Ia with Ξ = Ac-NYRAYA-, Z = -AKKKSK-(QKMQ)1-AMMQA-, Ψ = -AKE-NH2] | excellent stability | 
Ac-Gly Asn Tyr Arg Ala Tyr Ala Thr Glu Pro His Ala Lys Lys -NH-(CH2)5-CO-Ala Met Met Gln Ala Leu Leu Gly Ala Arg Ala Lys Glu-NH2 [Compound 6] |  | at least 18 months
